The results in this text go back to patent US20210268070A1, “Use of Immunomodulators to Control Infection and Stimulate Healing in Normal and Diabetic Wounds” (priority 2018, published 2021).

One experiment has as its system diabetic wounds. Nature of the experiment: Collagen deposition and wound healing in infected diabetic wounds. In kind it is in vivo, db/db mice. Conditions: P. aeruginosa PA103 10^3 infected, compared to PBS. The text has this: FIGS. 11A-11C illustrate that CCL3 increases infection control (11A), collagen deposition (11B) and enhances wound healing (11C) in diabetic wounds. P. aeruginosa PA103 10^3N=4; Significance determined as compared to PBS *<0.05, **p<0.01, ***p<0.001.
(§1) As discussed above immunomodulatory therapies enhance infection control in both normal and diabetic models. FIGS. 11A-11C illustrate that CCL3 increases infection control (11A) increases collagen deposition (11B) and enhances wound healing (11C) in diabetic wounds. Immunomodulators may also be used to enhance wound healing in uninfected diabetic wounds.
(§2) Implant surgery and wound surgery and surgical site infection are performed according to the following method. On the day of surgery, all mice are anesthetized by an intraperitoneal injection of a ketamine/xylazine mixture (90 mg/kg ketamine+5 mg/kg xylazine for mice). The back of the animals is shaved using an electric shave and scrubbed with alcohol swabs 3 times, a topical antiseptic solution (Hibiclens; chlorhexidine gluconate) is applied to the skin. The surgical procedures are performed with sterile instruments, sterile surgical gloves, and aseptic techniques as follows. For wound surgical procedure, a sterile biopsy punch (5-7 mm diameter) is used to punch through the full thickness of the back skin below the shoulder blades. Four 5-7 mm skin wounds are made on the back of each mouse. […]

Experiment [1] relates to diabetic uninfected wounds. Nature of the experiment: Wound healing in diabetic uninfected wounds. In kind it is in vivo, db/db mice. Particulars: FIG. 14.
Text: FIG. 14 illustrates CCL3 enhances wound healing in diabetic uninfected wounds.
as §1
as §2, with “mouse. Wounds placed in this area cannot be reached by the animals and therefore are protected from self-licking.” for “mouse.”

B1: Chemokine (C-C motif) ligand 3 (protein, listed as Homo sapiens)
chain: MQVSTAALAVLLCTMALCNQFSASLAADTPTACCFSYTSRQIPQNFIADYFETSSQCSKPGVIFLTKRSRQVCADPSEEWVQKYVSDLELSA
notes: class 1 immunomodulator
As for B1, the “collagen deposition in diabetic wounds” value with diabetic wounds (FIG. 11B) is given as “increases”. Besides, the “wound healing in diabetic wounds” value with diabetic wounds (FIG. 11C) was “enhances”. In addition, the “wound healing in diabetic uninfected wounds” value in experiment [1] was “enhances”.
